Measurements reported in US20120042415A1.

Biological target: wild type pokeweed antiviral protein (PAP) (pokeweed) (UniProt P10297)
Experiment: cell-based or functional assay

Sequence of UniProt P10297 (P10297 23-285 limits assumed): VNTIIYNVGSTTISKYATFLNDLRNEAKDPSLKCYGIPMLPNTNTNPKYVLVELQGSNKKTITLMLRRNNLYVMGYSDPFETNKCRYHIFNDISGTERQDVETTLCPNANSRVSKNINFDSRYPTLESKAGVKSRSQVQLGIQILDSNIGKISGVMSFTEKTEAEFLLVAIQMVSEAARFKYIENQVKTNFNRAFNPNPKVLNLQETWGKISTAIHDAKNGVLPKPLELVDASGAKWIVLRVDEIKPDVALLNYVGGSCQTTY

yeast wild type ribosomal protein L3 (full length) (from UniProt P14126 1-387)
transformation frequency of tobacco with L3+PAP (NT243): 24%
